Measurements taken from US20240158457A1 (MEDIKINE, published 2024).
Where “and” joins values, the source holds several entries; their conditions need not be identical. Equal entries are not always repeated. Where two headings read alike, the source gives them in different places. Where no end group is shown, it is not given here.

T1: human IL-18 receptor (alpha and beta subunits) on HEK-BLUE IL-18 reporter cells (human, UniProt Q13478 19-541; O95256 20-599)
T1 sequence (looked up) 1: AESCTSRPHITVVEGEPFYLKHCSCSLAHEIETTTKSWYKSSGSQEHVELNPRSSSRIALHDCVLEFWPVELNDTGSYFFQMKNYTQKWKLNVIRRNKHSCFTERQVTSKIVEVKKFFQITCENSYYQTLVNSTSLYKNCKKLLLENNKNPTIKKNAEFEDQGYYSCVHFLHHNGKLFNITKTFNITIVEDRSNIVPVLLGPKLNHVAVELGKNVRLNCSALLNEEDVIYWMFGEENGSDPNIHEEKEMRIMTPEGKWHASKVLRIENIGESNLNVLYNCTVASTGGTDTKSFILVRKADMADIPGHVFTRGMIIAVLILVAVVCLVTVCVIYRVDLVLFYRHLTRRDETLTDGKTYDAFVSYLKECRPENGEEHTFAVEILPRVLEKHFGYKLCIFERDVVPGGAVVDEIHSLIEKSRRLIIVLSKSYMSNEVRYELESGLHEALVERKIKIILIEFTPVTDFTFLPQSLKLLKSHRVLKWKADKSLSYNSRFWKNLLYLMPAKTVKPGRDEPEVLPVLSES
T1 sequence (looked up) 2: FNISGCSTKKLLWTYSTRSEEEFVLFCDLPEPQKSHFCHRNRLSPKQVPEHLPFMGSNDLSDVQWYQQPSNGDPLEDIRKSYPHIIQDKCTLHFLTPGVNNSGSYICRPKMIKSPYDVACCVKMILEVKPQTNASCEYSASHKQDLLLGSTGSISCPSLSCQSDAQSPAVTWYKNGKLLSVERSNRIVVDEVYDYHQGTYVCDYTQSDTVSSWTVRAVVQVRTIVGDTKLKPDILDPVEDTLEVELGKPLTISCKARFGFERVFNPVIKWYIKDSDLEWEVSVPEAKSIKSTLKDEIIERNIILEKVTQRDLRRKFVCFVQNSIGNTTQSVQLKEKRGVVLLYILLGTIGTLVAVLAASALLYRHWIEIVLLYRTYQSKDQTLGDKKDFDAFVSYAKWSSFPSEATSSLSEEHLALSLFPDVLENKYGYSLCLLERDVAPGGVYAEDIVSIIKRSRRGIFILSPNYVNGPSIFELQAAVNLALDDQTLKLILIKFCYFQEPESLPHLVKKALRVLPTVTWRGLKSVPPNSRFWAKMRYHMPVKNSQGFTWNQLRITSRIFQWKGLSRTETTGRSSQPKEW

T2: Human recombinant IL-18 (R&D Systems #9124-IL-050/CF) (human, UniProt Q14116 1-193)
T2 sequence: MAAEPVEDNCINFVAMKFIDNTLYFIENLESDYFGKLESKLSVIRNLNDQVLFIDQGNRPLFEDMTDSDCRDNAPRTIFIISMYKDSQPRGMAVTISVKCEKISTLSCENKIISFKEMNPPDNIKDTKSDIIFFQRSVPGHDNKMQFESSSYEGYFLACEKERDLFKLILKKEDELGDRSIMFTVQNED

B1: IL-18 Binding Protein (IL-18BP) Fc fusion (Fc fusion, not shown: a dimerising Fc or GST)
chain: TPVSQTTTAATASVRSTKDPCPSQPPVFPAAKQCPALEVTWPEVEVPLNGTLSLSCVACSRFPNFSILYWLGNGSFIEHLPGRLWEGSTSRERGSTGTQLCKALVLEQLTPALHSTNFSCVLVDPEQVVQRHVVLAQLWAGLRATLPPTQEALPSSHSSPQQQG

What was measured:
[1] = target: B1; assay: direct binding ELISA; biotinylated peptide on NeutrAvidin, IL-18BP Fc titrated, anti-human IgG Fc-HRP
Protocol: Binding of synthetic monomer peptides to IL-18 Binding Protein (IL-18BP) was measured using a direct binding ELISA. Briefly, 96-well ELISA plates were coated with NeutrAvidin (NA) at 5 μg per well in PBS, washed, then blocked with PBS containing 1% BSA. Wells were washed and representative peptides, synthesized with a C-terminal biotin were diluted to 300 nM in assay buffer and added to the NA coated wells. Wells were washed and serial dilutions starting at 100 nM of IL-18R subunits, IL-18BP from either of two sources (Acro #ILP-H5253 and R&D #119-BP), and control IgG Fc fusions) were added to the wells and incubated for 1 hr at 4° C. Then plates were washed and goat anti-human IgG Fc-HRP (Southern Biotech #2048-05) detection antibody was added for 1 hr. Wells were developed with TMB for 5-15 min and the enzyme reaction was stopped with a H₂SO₄ solution.

[2] = target: T1, human IL-18 receptor (alpha and beta …); assay: cell-based or functional assay
[3] = target: T1, human IL-18 receptor (alpha and beta …); assay: cell-based or functional assay; remark: listed apart in the source
[4] = target: T2, Human recombinant IL-18 (R&D Systems …); assay: cell-based or functional assay

Row | Binder | binding result [1] | efficacy (% maximum signal (Emax) vs. IL-18 in reporter assay) [2] | potency (EC50), HEK-BLUE IL-18 reporter assay (SEAP) [2] | further results
1 | GGICWVPFHYLDELMCTGG-biotin (cysteine pairing not given here, also called bn4D07) [biotinylated 4D07] | no binding (tested: 100 nM) |  |  | 
2 | GGFFECFYSPGHEWCIPSGG-biotin (cysteine pairing not given here, also called bn7C06) [biotinylated 7C06] | no binding (tested: 100 nM) |  |  | 
3 | GGLCWYFGGTVRGPCLPAPAPAPAPAPAPAPAFFECFYSPGHEWCIPSGG (designed binder, not fully specified; cysteine pairing not given here; also: linker of formula V (drawing, may hold non-peptide parts) between beta and alpha moieties) [Dimer 3] |  | 36% | < 30 nM | potency (EC50), HEK-BLUE IL-18 reporter assay (SEAP) [3]: < 10 nM
4 | GGCPNWLSDHLSEIWCPAPAPAPAPAPAPAPAICWVPFHYLDELMCTGG (designed binder, not fully specified; cysteine pairing not given here; also: linker of formula V (drawing, may hold non-peptide parts) between beta and alpha moieties) [Dimer 1] |  | 17% | < 1000 nM | 
5 | GGELCWRPFSFVDCEEGG-biotin (cysteine pairing not given here, also called bn-alpha synthetic F1a Consensus Construct; alpha synthetic F1 peptide, C-terminal biotinylated form) [biotinylated alpha synthetic F1a Consensus Construct] | no binding (tested: 100 nM) |  |  | 
6 | GGCPNWLSDHLSEIWCPAPAPAPAPAPAPAPAFFECFYSPGHEWCIPSGG (designed binder, not fully specified; cysteine pairing not given here; also: linker of formula V (drawing, may hold non-peptide parts) between beta and alpha moieties) [Dimer 2] |  | 34% | > 100 nM and < 300 nM | 
7 | B1 |  |  |  | IC50, inhibition of IL-18 bioactivity in HEK-BLUE IL-18 reporter assay [4]: ~1 nM
8 | GGLCWYFGGTVRGPCLGG-biotin (cysteine pairing not given here, also called bn-beta family 2 synthetic construct) [biotinylated beta family 2 synthetic construct] | no binding (tested: 100 nM) |  |  | 
9 | GGCPNWLSDHLSEIWCGG-biotin (cysteine pairing not given here) [C-terminally biotinylated form of peptide 5C09] | no binding (tested: 100 nM) |  |  | 
